Reference: publication PMC10288612

Biological target: HER-2/neu extracellular domain (ErbB2) (human, UniProt P04626 23-652)
Test: electrochemical bead sandwich assay

In the case of GCAGCGGTGTGGGGGCAGCGGTGTGGGGGCAGCGGTGTGGGGTTTTT (ssDNA) [trimer], the Kd is reported as 0.0261 pM.

TTTTTTGCAGCGGTGTGGGGGCAGCGGTGTGGGG (ssDNA) [dimer] was tested, and the Kd was 0.0374 pM.

GCAGCGGTGTGGGG (ssDNA) [monomer] gave a Kd of 0.121 pM.

Binder TTTTTTTTTGCAGCGGTGTGGGG (ssDNA) [monomer-T (monomer-9T)] has a Kd of 0.085 pM.
